According to patent publication US12617818 (UNIVERSITY OF NORTH TEXAS, dated 2026):
Primed or numbered codes have the meaning given here. Where no end group is shown, it is not given here. FITC′ = fluorescein isothiocyanate

B2: Skeletal muscle myosin S2 synthetic peptide for GFS (MYH2), 36 residues (peptide)
peptide: KIQLEAKIKEVTERAEDEEEINAELTAKKRKLEDEC
B3: Human β-cardiac mutant myosin S2 peptide (E924K), 19 residues (peptide)
peptide: EMNKRLEDEEEMNAELTAK
modifications: also: in FRET: FITC on N-terminus of one monomer, terbium-DTPA-cytosine chelate on C-terminal Lys of the other
notes: E924K already in the entry; also called Cardiac Myosin S2 Mutant, E924K
B4: Cardiac muscle myosin S2 synthetic peptide for GFS (MYH7), 36 residues (peptide)
peptide: KIQLEAKVKEMNERLEDEEEMNAELTAKKRKLEDEC
modifications: also: crosslinked to coverslip or silica bead through iodoacetamide-succinimidyl ester
B5: Smooth muscle myosin S2 synthetic peptide for GFS (MYH11), 36 residues (peptide)
peptide: KQELEEILHEMEARLEEEEDRGQQLQAERKKMAQQC
B6: Human β-cardiac myosin S2 peptide, wild-type (MYH7, 19 residues) (peptide)
peptide: EMNERLEDEEEMNAELTAK
modifications: also: in FRET: FITC on N-terminus of one monomer, terbium-DTPA-cytosine chelate on C-terminal Lys of the other
notes: Chemically synthesized; forms a coiled-coil dimer; also called human cardiac myosin S2 peptide; cardiac muscle myosin S2^pep
B7: Human skeletal myosin S2 peptide (MYH2), 19 residues (peptide)
peptide: EVTERAEDEEEINAELTAK
modifications: also: in FRET: FITC on N-terminus of one monomer, terbium-DTPA-cytosine chelate on C-terminal Lys of the other
notes: also called skeletal muscle myosin S2^pep
B8: Human smooth myosin S2 peptide (MYH11), 21 residues (peptide)
peptide: EMEARLEEEEDRGQQLQAERK
modifications: also: in FRET: FITC on N-terminus of one monomer, terbium-DTPA-cytosine chelate on C-terminal Lys of the other
notes: also called smooth muscle myosin S2^pep
B9: Human β-cardiac mutant myosin S2 peptide (E930del), 18 residues (peptide)
peptide: EMNERLEDEEMNAELTAK
modifications: also: in FRET: FITC on N-terminus of one monomer, terbium-DTPA-cytosine chelate on C-terminal Lys of the other
notes: Deletion of glutamate 930 already in the entry; also called Edel930; ΔE930

Assays:
Rabbit skeletal myosin [1] = target: T1, Rabbit skeletal myosin (rabbit); experiment: 'previously calculated Kd values, concentrations at which half of myosin is saturated'; method and source of the myosin not stated
T1 construct: mature; also called rabbit whole skeletal myosin; rabbit skeletal myosin S2

[2] = target: B7; experiment: FRET donor lifetime of 2 µM labelled S2 peptide dimer titrated with destabilizer
Text: (§1) Donor probe was conjugated to C-terminus of a myosin S2 peptide monomer and acceptor probe was conjugated to N-terminus of another myosin S2 peptide. In FRET as lanthanide of the donor probe decays, energy goes to fluorescein and it emits out energy in form of light. In addition, as the monomers come closer to each other, lifetime of donor decreases indicating a decrease in distance between donor and acceptor probe; an opposite effect is observed, with an increase in distance between the probes, […]. Lifetime of donor probe was measured in milliseconds.
Like cardiac muscle myosin S2^pep, dilution by decreasing the concentration of dimer skeletal muscle myosin S2^pep was performed and further was treated with different concentrations of anti-S2 peptides (FIG. 28A, 28B). Different concentrations of dimer skeletal muscle myosin S2^pep was used with anti-S2 peptides.

[3] = target: B2; experiment: cell-based or functional assay
Rabbit skeletal myosin [4] = target: T1, Rabbit skeletal myosin; experiment: cell-based or functional assay
[5] = target: B4; experiment: cell-based or functional assay
[6] = target: B6; experiment: FRET donor lifetime of labelled S2 peptide dimer titrated with destabilizer
Text: as §1
(§2) During FRET assay, cardiac muscle myosin S2^pep was treated with increasing concentrations of anti-S2 peptides. […] Dilution to decrease the concentration of dimer cardiac muscle myosin S2^pep was performed to measure binding affinity of coiled-coil peptide and in turn to measure minimal concentration for stable dimer formation (FIG. 25A). […] (FIG. 25B)

[7] = target: B8; experiment: FRET donor lifetime of the labelled smooth muscle S2 peptide dimer titrated with the peptide
Text: as §1
The specificity of peptides were later tested on the myosin S2 of the smooth muscle (MYH11). […] Smooth muscle myosin S2^pep was treated with different concentrations of anti-S2 peptides.

[8] = target: B6; experiment: competitive ELISA (curve fit of OD, FIG. 44B); antibody 1:64, 62.5 nM human cardiac S2 peptide, rabbit skeletal myosin coated; the sentence does not name the target
Protocol: (§3) The assay began with coating 96 well microtiter plate with rabbit skeletal myosin molecule overnight. […] After incubation at room temperature for an hour, the unbound protein complexes were washed with PBS and blocking buffer. Enzyme conjugated secondary antibody were added on to the wells and allowed conjugate for an hour at room temperature. After washing the wells with detergent buffer, color developing BCIP substrate were added on to the wells. Images of the color developed in the wells were captured and analyzed in Image J.

[9] = target: B6; experiment: competitive ELISA (FIG. 44); differs from 6 nM at paragraph 385
Protocol: as §3

[10] = target: B2; experiment: cell-based or functional assay
[11] = target: B5; experiment: cell-based or functional assay
[12] = target: B4; experiment: cell-based or functional assay
[13] = target: the molecule itself; experiment: cell-based or functional assay
[14] = target: the molecule itself; experiment: FRET, dimer dissociation (control); text value differs from Table 3
[15] = target: the molecule itself; experiment: FRET donor lifetime on dilution of donor- and acceptor-labelled peptide; dissociation of the S2 peptide coiled-coil dimer (control)
[16] = target: B3; experiment: FRET donor lifetime of 0.1 µM labelled dimer titrated with stabilizer; text value and unit differ from Table 3
Text: as §1

[17] = target: B6; experiment: FRET donor lifetime of labelled S2 peptide dimer titrated with stabilizer
Text: as §1, §2

Rabbit skeletal myosin [18] = target: T1, Rabbit skeletal myosin; experiment: 'previously calculated Kd values'; row stands under the IC-50 head for stabilizers, read as unlabeled stabilizer; method and source of the myosin not stated
[19] = target: B6; experiment: competitive ELISA, printed as 'binding efficiency'
Protocol: (§4) Unbound protein complexes are washed off by PBS and blocking buffer. Enzyme conjugated secondary antibody is added to the wells and allowed to conjugate for an hour. After washing with detergent buffer, color developing substrate BCIP is added and development of color in the wells is recorded. The video is analyzed by Image J to get the OD in the wells.

[20] = target: T2, Cardiac muscle myosin S2 synthetic peptide for GFS, E930del mutant (MYH7 E930del), 35 residues (human, not fully specified); experiment: cell-based or functional assay
T2 peptide: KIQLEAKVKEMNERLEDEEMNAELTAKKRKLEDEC

[21] = target: B6; experiment: competitive ELISA, printed as 'binding constant'; differs from 1.37 nM at paragraph 347
Protocol: as §4

[22] = target: B6; experiment: competitive ELISA (curve fit of OD), printed as 'binding efficiency'; antibody 1:64, 62.5 nM S2 peptide, stabilizer 0 to 250 nM, rabbit skeletal myosin coated
Protocol: as §4

[23] = target: B9; experiment: FRET donor lifetime of 0.1 µM labelled S2 peptide dimer titrated with stabilizer
[24] = target: B7; experiment: as above
[25] = target: B3; experiment: as above
[26] = target: T2, Cardiac muscle myosin S2 synthetic …; experiment: cell-based or functional assay
Rabbit skeletal myosin [27] = target: T1, Rabbit skeletal myosin; experiment: 'previously calculated Kd values'; row stands under the IC-50 head for stabilizers, read as labeled stabilizer; method and source of the myosin not stated

T1 sequence (Q28641 whole entry, chain 1 of 3): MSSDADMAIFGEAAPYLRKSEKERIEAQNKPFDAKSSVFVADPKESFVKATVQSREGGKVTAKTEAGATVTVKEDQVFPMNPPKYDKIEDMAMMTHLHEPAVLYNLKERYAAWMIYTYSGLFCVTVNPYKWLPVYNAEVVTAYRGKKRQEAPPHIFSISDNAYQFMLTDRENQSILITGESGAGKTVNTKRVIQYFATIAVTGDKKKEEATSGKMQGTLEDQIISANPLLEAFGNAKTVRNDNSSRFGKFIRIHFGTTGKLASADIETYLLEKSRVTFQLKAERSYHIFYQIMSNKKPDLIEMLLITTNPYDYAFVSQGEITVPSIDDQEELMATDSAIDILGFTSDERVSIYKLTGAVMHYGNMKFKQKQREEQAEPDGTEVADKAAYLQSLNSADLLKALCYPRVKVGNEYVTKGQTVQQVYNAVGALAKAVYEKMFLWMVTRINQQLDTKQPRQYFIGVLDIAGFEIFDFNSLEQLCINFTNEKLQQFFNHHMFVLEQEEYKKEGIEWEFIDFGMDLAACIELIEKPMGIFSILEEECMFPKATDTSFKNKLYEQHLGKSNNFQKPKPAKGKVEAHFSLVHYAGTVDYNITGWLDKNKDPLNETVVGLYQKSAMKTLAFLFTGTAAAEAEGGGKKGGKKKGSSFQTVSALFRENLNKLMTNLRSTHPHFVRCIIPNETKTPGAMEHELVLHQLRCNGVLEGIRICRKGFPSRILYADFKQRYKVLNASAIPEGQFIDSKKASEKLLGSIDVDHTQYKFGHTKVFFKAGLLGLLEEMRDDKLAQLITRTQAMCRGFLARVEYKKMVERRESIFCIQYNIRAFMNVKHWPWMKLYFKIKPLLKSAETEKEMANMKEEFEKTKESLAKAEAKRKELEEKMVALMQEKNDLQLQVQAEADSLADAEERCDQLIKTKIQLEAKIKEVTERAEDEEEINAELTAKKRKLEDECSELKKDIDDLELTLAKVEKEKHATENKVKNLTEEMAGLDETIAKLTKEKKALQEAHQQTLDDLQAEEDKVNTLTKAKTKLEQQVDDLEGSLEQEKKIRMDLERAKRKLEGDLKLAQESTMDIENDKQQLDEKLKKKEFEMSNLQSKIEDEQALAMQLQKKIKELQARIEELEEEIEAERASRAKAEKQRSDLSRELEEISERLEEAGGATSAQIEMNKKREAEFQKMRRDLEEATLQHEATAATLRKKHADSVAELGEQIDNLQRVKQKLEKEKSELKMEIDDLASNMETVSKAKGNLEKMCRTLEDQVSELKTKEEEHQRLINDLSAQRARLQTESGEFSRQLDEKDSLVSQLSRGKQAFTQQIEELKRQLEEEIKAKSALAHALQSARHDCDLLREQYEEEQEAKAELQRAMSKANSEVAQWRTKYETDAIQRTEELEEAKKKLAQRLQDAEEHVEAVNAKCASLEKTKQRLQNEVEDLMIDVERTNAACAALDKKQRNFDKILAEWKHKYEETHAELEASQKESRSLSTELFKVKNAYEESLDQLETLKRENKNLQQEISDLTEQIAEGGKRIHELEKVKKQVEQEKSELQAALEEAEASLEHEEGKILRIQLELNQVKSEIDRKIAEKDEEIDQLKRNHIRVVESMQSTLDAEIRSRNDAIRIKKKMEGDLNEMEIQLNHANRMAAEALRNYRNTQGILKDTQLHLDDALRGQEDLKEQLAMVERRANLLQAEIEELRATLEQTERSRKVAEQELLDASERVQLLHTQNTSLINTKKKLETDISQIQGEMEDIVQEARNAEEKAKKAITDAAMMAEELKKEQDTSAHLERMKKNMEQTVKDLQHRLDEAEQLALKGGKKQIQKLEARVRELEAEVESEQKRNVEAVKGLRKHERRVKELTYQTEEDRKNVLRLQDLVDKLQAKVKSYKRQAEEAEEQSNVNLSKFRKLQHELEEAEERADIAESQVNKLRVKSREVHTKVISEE
T1 sequence (P02602 2-192, chain 2 of 3, further chain): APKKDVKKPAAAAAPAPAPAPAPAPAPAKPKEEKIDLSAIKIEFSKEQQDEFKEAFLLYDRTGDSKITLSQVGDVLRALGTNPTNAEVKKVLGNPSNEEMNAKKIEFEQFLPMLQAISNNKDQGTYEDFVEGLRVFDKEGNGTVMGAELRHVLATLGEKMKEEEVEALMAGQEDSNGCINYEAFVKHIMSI
T1 sequence (P02608 2-170, chain 3 of 3, further chain): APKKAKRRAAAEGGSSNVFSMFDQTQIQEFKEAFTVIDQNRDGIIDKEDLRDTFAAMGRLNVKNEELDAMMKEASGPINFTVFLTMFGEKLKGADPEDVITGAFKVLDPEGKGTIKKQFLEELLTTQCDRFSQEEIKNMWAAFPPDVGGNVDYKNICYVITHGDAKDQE

B1: Destabilizer peptide (peptide)
peptide: EMNERLEDEREMKAELTAK
notes: also called destabilizing peptide; unlabeled destabilizer
Rabbit skeletal myosin [1]
  Kd: 0.075 µM
[2]
  Kd: 0.469 µM
[3]
  GFS: fold decrease of the force required to uncoil the coiled coil against control: 2.45 times
Rabbit skeletal myosin [4]
  GFS: fold less force required to uncoil myosin in presence of destabilizer against control: 1.6 times
[5]
  GFS: fold decrease of the force required to uncoil the coiled coil against control: 1.98 times
[6]
  Kd: 1.33 µM
[7]
  binding result: no binding
[8]
  Kd: 0.006 µM
[9]
  Kd: 0.001 µM
[10]
  GFS: force to uncoil the S2 peptide dimer to a length of 10 nm, with destabilizer: 0.184 pN
[11]
  GFS: force to uncoil the S2 peptide dimer to a length of 10 nm, with destabilizer: 0.451 pN
[12]
  GFS: force to uncoil the S2 peptide dimer to a length of 10 nm, with destabilizer: 0.436 pN

## B2
[13]
  GFS: force to uncoil the S2 peptide dimer to a length of 10 nm, no anti-S2 peptide (control): 0.45 pN

## B3
[14]
  Kd: 2.54 µM
[15]
  Kd: 0.942 µM

## B4
[13]
  GFS: force to uncoil the S2 peptide dimer to a length of 10 nm, no anti-S2 peptide (control): 0.863 pN

## B5
[13]
  GFS: force to uncoil the S2 peptide dimer to a length of 10 nm, no anti-S2 peptide (control): 0.461 pN

## B6
[14]
  Kd: 0.308 µM
[15]
  Kd: 0.303 µM

## B7
[15]
  Kd: 0.341 µM

## B8
[15]
  Kd: 0.302 µM

## B9
[14]
  Kd: 3.24 µM
[15]
  Kd: 1.11 µM

B10: Stabilizer peptide (peptide)
peptide: KKKKKKKKFKAKKKKKK
notes: also called stabilizing peptide; unlabeled stabilizer
[16]
  Kd: 36200 µM
[17]
  Kd: 0.0212 µM
Rabbit skeletal myosin [18]
  Kd: 0.006 µM
[19]
  Kd: 0.001 µM
[3]
  GFS: fold increase of the force required to uncoil the coiled coil against control: 1.4 times
Rabbit skeletal myosin [4]
  GFS: fold of force required to uncoil myosin in presence of stabilizer against control: 1.5 times
[20]
  GFS: fold increase of the force required to uncoil the coiled coil against control: 2.6 times
[5]
  GFS: fold increase of the force required to uncoil the coiled coil against control: 1.8 times
[21]
  Kd: 0.00138 µM
[22]
  Kd: 0.00137 µM
[23]
  Kd: 0.238 µM
[24]
  Kd: 0.0197 µM
[25]
  Kd: 0.034 µM
[7]
  binding result: no binding
[10]
  GFS: force to uncoil the S2 peptide dimer to a length of 10 nm, with stabilizer: 0.628 pN
[11]
  GFS: force to uncoil the S2 peptide dimer to a length of 10 nm, with stabilizer: 0.496 pN
[26]
  GFS: force to uncoil the S2 peptide dimer to a length of 10 nm, with stabilizer: 1.07 pN
[12]
  GFS: force to uncoil the S2 peptide dimer to a length of 10 nm, with stabilizer: 1.55 pN

B11: FITC (fluorescein isothiocyanate) labeled destabilizing peptide (peptide)
peptide: {FITC′}-EMNERLEDEREMKAELTAK
notes: also called labeled Destabilizer; fluorescein labeled destabilizer peptide
Rabbit skeletal myosin [1]
  Kd: 0.176 µM

B12: TRITC (tetramethylrhodamine) labeled stabilizing peptide (peptide)
peptide: KKKKKKKKFKAKKKKKK
modifications: also: TRITC label, site not given here
notes: also called labeled Stabilizer; fluorescently labelled stabilizer peptide
Rabbit skeletal myosin [27]
  Kd: 0.33 µM
